Test results as given in patent publication US20210246166A1 (Bayer, published 2021).
Bridge positions count the residues as written; N and C are the ends. Square brackets hold non-standard residues; d marks the D form. Ends that are not written are not given here. * marks the point of attachment. X5 = Tetrahydropyranyl‑4‑acetic acid, O=C(CC1CCOCC1)*; Pro(trans-4-F) = O=C(O)[C@@H]1C[C@@H](F)CN1; Oic = O=C(O)[C@@H]1C[C@@H]2CCCC[C@@H]2N1; Morpholine(3S-CO) = O=C(O)[C@@H]1COCCN1; Cyclopropanecarbonyl = O=C(C1CC1)*; Hyp = O=C(O)[C@@H]1C[C@@H](O)CN1; aIle = CC[C@@H](C)[C@H](N)C(=O)O; tBuAla = CC(C)(C)C[C@H](N)C(=O)O; Pen = CC(C)(S)[C@H](N)C(=O)O; Isovaleryl = CC(C)CC(=O)*; NMeC = CN[C@@H](CS)C(=O)O; Me2Gly = CN(C)CC(=O)*; Sar = CNCC(=O)O

T1: recombinant human MASP1 active protease (amino acids 297-699, C-terminal His Tag) (human, UniProt P48740 297-699)
T1 sequence: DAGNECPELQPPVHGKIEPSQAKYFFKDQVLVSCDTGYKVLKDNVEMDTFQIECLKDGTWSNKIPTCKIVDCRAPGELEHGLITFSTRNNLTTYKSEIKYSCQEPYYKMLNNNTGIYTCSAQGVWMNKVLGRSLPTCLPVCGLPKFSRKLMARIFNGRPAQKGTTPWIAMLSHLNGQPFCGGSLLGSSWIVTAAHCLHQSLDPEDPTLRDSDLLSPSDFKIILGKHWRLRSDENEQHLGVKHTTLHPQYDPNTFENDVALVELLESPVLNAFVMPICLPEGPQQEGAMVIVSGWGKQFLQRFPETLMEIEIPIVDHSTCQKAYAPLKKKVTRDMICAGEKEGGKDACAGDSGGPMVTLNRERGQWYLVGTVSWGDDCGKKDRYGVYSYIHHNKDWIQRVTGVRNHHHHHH


Assays:
[1] = target: recombinant human MASP2 active protease (amino acids 297-686, C-terminal His Tag) (human, UniProt O00187 297-686); assay: cell-based or functional assay
Chain of recombinant human MASP2 active protease (amino acids 297-686, C-terminal His Tag) (O00187 other isoform, or with tags, fused parts or gaps limits assumed): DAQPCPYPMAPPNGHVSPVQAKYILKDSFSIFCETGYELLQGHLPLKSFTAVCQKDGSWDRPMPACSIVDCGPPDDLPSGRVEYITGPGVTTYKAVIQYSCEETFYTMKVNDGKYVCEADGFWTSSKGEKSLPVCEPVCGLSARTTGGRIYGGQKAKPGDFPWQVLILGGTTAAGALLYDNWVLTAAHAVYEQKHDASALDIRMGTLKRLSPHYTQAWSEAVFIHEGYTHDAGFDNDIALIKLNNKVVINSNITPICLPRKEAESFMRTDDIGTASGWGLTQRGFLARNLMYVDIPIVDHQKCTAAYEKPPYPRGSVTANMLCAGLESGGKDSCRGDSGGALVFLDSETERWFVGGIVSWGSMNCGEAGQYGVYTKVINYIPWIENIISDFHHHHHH

[2] = target: T1, recombinant human MASP1 active protease …; assay: cell-based or functional assay

| Binder | human MASP2 IC50 [1] | human MASP1 IC50 [2] |
| --- | --- | --- |
| ICSRS[tBuAla]PPI[Pen]I-NH2 (disulfide 2-10; N-terminus assumed; SMILES CC[C@H](C)[C@H](N)C(=O)N[C@H]1CSSC(C)(C)[C@@H](C(=O)N[C@H](C(N)=O)[C@@H](C)CC)NC(=O)[C@H]([C@@H](C)CC)NC(=O)[C@@H]2CCCN2C(=O)[C@@H]2CCCN2C(=O)[C@H](CC(C)(C)C)NC(=O)[C@H](CO)NC(=O)[C@H](CCCNC(=N)N)NC(=O)[C@H](CO)NC1=O) [Example 345: IC+SRS-((tBu)A)-PPI-(Pen)+I-NH2] | 390 nM | 27 nM |
| AICSRSLP[(3S-OH)P]ICIPD-NH2 (disulfide 3-11) [Example 355: AIC+SRSLP-((3S-OH)P)-IC+IPD-NH2] | 930 nM | 29 nM |
| AICSRSLPP[aIle]CIPD-NH2 (disulfide 3-11; N-terminus assumed; SMILES CC[C@@H](C)[C@@H]1NC(=O)[C@@H]2CCCN2C(=O)[C@@H]2CCCN2C(=O)[C@H](CC(C)C)NC(=O)[C@H](CO)NC(=O)[C@H](CCCNC(=N)N)NC(=O)[C@H](CO)NC(=O)[C@@H](NC(=O)[C@@H](NC(=O)[C@H](C)N)[C@@H](C)CC)CSSC[C@@H](C(=O)N[C@H](C(=O)N2CCC[C@H]2C(=O)N[C@@H](CC(=O)O)C(N)=O)[C@@H](C)CC)NC1=O) [Example 346: AIC+SRSLPP-(allo-I)-C+IPD-NH2] | 190 nM | 27 nM |
| [Sar]ICSRSL[Pro(trans-4-F)]PICIPD-OH (disulfide 3-11; N-terminus assumed; SMILES CC[C@H](C)[C@H](NC(=O)CNC)C(=O)N[C@H]1CSSC[C@@H](C(=O)N[C@H](C(=O)N2CCC[C@H]2C(=O)N[C@@H](CC(=O)O)C(=O)O)[C@@H](C)CC)NC(=O)[C@H]([C@@H](C)CC)NC(=O)[C@@H]2CCCN2C(=O)[C@@H]2C[C@@H](F)CN2C(=O)[C@H](CC(C)C)NC(=O)[C@H](CO)NC(=O)[C@H](CCCNC(=N)N)NC(=O)[C@H](CO)NC1=O) [Example 354: ((N-Me)G)-IC+SRSL-((trans-4-Fluoro)P)-PIC+IPD-OH] | 510 nM | 29 nM |
| AICSRS[2‑Amino‑7‑(tert-butoxy)‑7‑oxoheptanoic acid]PPI[Pen]IPD-NH2 (disulfide 3-11) [Example 344: AIC+SRS-(2-Amino-7-(tert-butoxy)-7-oxoheptanoic acid)-PPI-(Pen)+IPD-NH2] | 51 nM | 27 nM |
| ICSRSLP[Oic]I[Pen]I-NH2 (disulfide 2-10; N-terminus assumed; SMILES CC[C@H](C)[C@H](N)C(=O)N[C@H]1CSSC(C)(C)[C@@H](C(=O)N[C@H](C(N)=O)[C@@H](C)CC)NC(=O)[C@H]([C@@H](C)CC)NC(=O)[C@@H]2C[C@@H]3CCCC[C@@H]3N2C(=O)[C@@H]2CCCN2C(=O)[C@H](CC(C)C)NC(=O)[C@H](CO)NC(=O)[C@H](CCCNC(=N)N)NC(=O)[C@H](CO)NC1=O) [Example 341: IC+SRSLP-(Oic)-I-(Pen)+I-NH2] | 430 nM | 26 nM |
| [Sar]ICSRSLP[Oic]ICIPD-OH (disulfide 3-11; N-terminus assumed; SMILES CC[C@H](C)[C@H](NC(=O)CNC)C(=O)N[C@H]1CSSC[C@@H](C(=O)N[C@H](C(=O)N2CCC[C@H]2C(=O)N[C@@H](CC(=O)O)C(=O)O)[C@@H](C)CC)NC(=O)[C@H]([C@@H](C)CC)NC(=O)[C@@H]2C[C@@H]3CCCC[C@@H]3N2C(=O)[C@@H]2CCCN2C(=O)[C@H](CC(C)C)NC(=O)[C@H](CO)NC(=O)[C@H](CCCNC(=N)N)NC(=O)[C@H](CO)NC1=O) [Example 349: ((N-Me)G)-IC+SRSLP-(Oic)-IC+IPD-OH] | 420 nM | 9.6 nM |
| GICSRSL[Morpholine(3S-CO)]PICIPD-OH (disulfide 3-11) [Example 357: GIC+SRSL-(Morpholine-3-carboxylic)-PIC+IPD-OH] | 1300 nM | 31 nM |
| XXAICSRS[tBuAla]PPI[Pen]IPD-OH (disulfide 5-13; not fully specified (N-terminus); printed as (D-(+)Biotin)-(Ahx)-AIC + SRS-((tBu)A)-PPI-(Pen) + IPD-OH) [Example 352: (D-(+)Biotin)-(Ahx)-AIC+SRS-((tBu)A)-PPI-(Pen)+IPD-OH] | 71 nM | 28 nM |
| Cyclopropanecarbonyl-ICSRS[tBuAla]PPI[NMeC]I-NH2 (disulfide 2-10; SMILES CC[C@H](C)[C@H](NC(=O)[C@@H]1CSSC[C@H](NC(=O)[C@@H](NC(=O)C2CC2)[C@@H](C)CC)C(=O)N[C@@H](CO)C(=O)N[C@@H](CCCNC(=N)N)C(=O)N[C@@H](CO)C(=O)N[C@@H](CC(C)(C)C)C(=O)N2CCC[C@H]2C(=O)N2CCC[C@H]2C(=O)N[C@@H]([C@@H](C)CC)C(=O)N1C)C(N)=O) [Example 353: (Cyclopropanecarboxylic)-IC+SRS-((tBu)A)-PPI-((N-Me)C)+I-NH2] | 50 nM | 28 nM |
| X5-ICSRS[tBuAla]PPICIPD-NH2 (disulfide 2-10; SMILES CC[C@H](C)[C@H](NC(=O)CC1CCOCC1)C(=O)N[C@H]1CSSC[C@@H](C(=O)N[C@H](C(=O)N2CCC[C@H]2C(=O)N[C@@H](CC(=O)O)C(N)=O)[C@@H](C)CC)NC(=O)[C@H]([C@@H](C)CC)NC(=O)[C@@H]2CCCN2C(=O)[C@@H]2CCCN2C(=O)[C@H](CC(C)(C)C)NC(=O)[C@H](CO)NC(=O)[C@H](CCCNC(=N)N)NC(=O)[C@H](CO)NC1=O) [Example 342: (Tetrahydropyranyl-4-acetic acid)-IC+SRS-((tBu)A)-PPIC+IPD-NH2] | 17 nM | 26 nM |
| GICSRSLPPICI[Hyp]D-OH (disulfide 3-11; N-terminus assumed; SMILES CC[C@H](C)[C@H](NC(=O)CN)C(=O)N[C@H]1CSSC[C@@H](C(=O)N[C@H](C(=O)N2C[C@H](O)C[C@H]2C(=O)N[C@@H](CC(=O)O)C(=O)O)[C@@H](C)CC)NC(=O)[C@H]([C@@H](C)CC)NC(=O)[C@@H]2CCCN2C(=O)[C@@H]2CCCN2C(=O)[C@H](CC(C)C)NC(=O)[C@H](CO)NC(=O)[C@H](CCCNC(=N)N)NC(=O)[C@H](CO)NC1=O) [Example 348: GIC+SRSLPPIC+I-(Hyp)-D-OH] | 690 nM | 28 nM |
| [Me2Gly]ICSRSLPPICIPD-NH2 (disulfide 3-11; SMILES CC[C@H](C)[C@H](NC(=O)CN(C)C)C(=O)N[C@H]1CSSC[C@@H](C(=O)N[C@H](C(=O)N2CCC[C@H]2C(=O)N[C@@H](CC(=O)O)C(N)=O)[C@@H](C)CC)NC(=O)[C@H]([C@@H](C)CC)NC(=O)[C@@H]2CCCN2C(=O)[C@@H]2CCCN2C(=O)[C@H](CC(C)C)NC(=O)[C@H](CO)NC(=O)[C@H](CCCNC(=N)N)NC(=O)[C@H](CO)NC1=O) [Example 350: ((N,N-diMe)G)-IC+SRSLPPIC+IPD-NH2] | 370 nM | 28 nM |
| Isovaleryl-ICSRS[tBuAla]PPI[NMeC]I-NH2 (disulfide 2-10; SMILES CC[C@H](C)[C@H](NC(=O)[C@@H]1CSSC[C@H](NC(=O)[C@@H](NC(=O)CC(C)C)[C@@H](C)CC)C(=O)N[C@@H](CO)C(=O)N[C@@H](CCCNC(=N)N)C(=O)N[C@@H](CO)C(=O)N[C@@H](CC(C)(C)C)C(=O)N2CCC[C@H]2C(=O)N2CCC[C@H]2C(=O)N[C@@H]([C@@H](C)CC)C(=O)N1C)C(N)=O) [Example 358: (Isovaleric)-IC+SRS-((tBu)A)-PPI-((N-Me)C)+I-NH2] | 19 nM | 31 nM |
